According to article PMC9645375 (Chemical Science, 2022):

Molecular target: HDM2 (human double minute 2) protein (human, UniProt Q00987 1-491)
Test: fluorescence polarisation
Details: both partners purified

Sequence of HDM2 (human double minute 2) protein (Q00987 whole entry): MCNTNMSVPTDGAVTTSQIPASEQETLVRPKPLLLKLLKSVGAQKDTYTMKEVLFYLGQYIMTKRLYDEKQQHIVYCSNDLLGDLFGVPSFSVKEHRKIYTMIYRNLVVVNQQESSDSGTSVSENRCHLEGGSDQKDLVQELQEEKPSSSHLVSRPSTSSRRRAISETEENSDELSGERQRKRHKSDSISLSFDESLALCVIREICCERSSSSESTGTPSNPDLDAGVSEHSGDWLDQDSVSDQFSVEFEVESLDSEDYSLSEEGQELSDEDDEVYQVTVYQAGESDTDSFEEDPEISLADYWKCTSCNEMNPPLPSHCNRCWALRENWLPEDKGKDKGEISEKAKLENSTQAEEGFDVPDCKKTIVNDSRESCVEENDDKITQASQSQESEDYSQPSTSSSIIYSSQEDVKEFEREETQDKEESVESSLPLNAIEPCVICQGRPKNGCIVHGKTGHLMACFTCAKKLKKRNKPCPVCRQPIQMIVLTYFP

## PCFYDYWQCL (not fully specified; stapled (the two Cys residues at i and i+7 cross-linked), source: synthetic peptide) [stapled HDM2-opt peptide]
  IC50: 6.9 ± 1.9 µM
